Measured values reported in patent US20250051455A1 (Hoffmann-La Roche, published 2025).

How the values were obtained:
[1] = molecular target: human HLA-G expressed on cells (JEG3 natural; SKOV3 HLA-G+ and PA-TU-8902 HLA-G+ transfectants) (human); test: cell-based or functional assay
[2] = molecular target: T1, recombinant soluble human HLA-G β2M MHC class I complex, trimer (human); test: ELISA, HLA-G trimer coated at random on plate
T1 construct: Non-biotinylated; also called HLA-G Trimer; trimeric HLA-G
Experimental: The above table summarizes the binding of different rat anti-human HLA-G monoclonal antibodies, derived from wt protein IMS. Shown are the relative EC50 values [ng/ml] of the respective binding to rec. wt monomeric, dimeric and trimeric HLA-G proteins as assessed by ELISA. The ELISA was set up by coating the biotinylated wt HLA-G antigen to strepdavidin plates. After incubation and washing steps, the respective antibodies were bound in a concentration range from 10-0 μg in 1:2 dilution steps. Detection of bound antibodies was carried out by anti-Fc-antibody-POD conjugates. EC50 values were determined from the resulting binding curves at the antibody concentrations generating the half-maximal signal. In case of the non-biotinylated HLA-G dimer and trimer antigens, immobilization was carried out by random coating on assay plates.

[3] = molecular target: T2, recombinant soluble human HLA-G β2M MHC class I complex, monomer (human); test: blocking ELISA on biotinylated wt HLA-G; competitor ILT-4
T2 construct: His tagged; biotinylated where coated on streptavidin plates, non-biotinylated in SPR; also called HLA-G-0003; wt HLA-G (monomer)

[4] = molecular target: T2, recombinant soluble human HLA-G β2M MHC …; test: competition ELISA, one antibody concentration; competitor coated ILT2-Fc
Experimental: (§1) The ELISA was set up by coating the Fc tagged ILT2 and ILT4 respectively to Maxisorp microtiter plates. After incubation and washing steps, the respective antibodies were added at a concentration of 100 nM. Soluble His tagged monomeric, dimeric or trimeric HLA-G was added to the wells. After incubation and washing steps, detection of bound receptor was carried out by anti-His-antibody-POD conjugates.
(§2) The above tables summarize the blocking of interaction between rec. HLA-G proteins (monomer and oligomers) to its receptors ILT2 and ILT4 by the described HLAG antibodies at a concentration of 110 nM (*HLAG-0090 was tested at a concentration of 44 nM) as assessed by ELISA. Shown are the % inhibitions of the HLA-G/receptor interaction (for ILT2 and ILT4). The less pronounced ILT4 inhibition depends on the major β2M dependent interaction of this receptor.

[5] = molecular target: T3, recombinant soluble human HLA-G β2M MHC class I complex, dimer (human); test: as above
T3 construct: Non-biotinylated; also called HLA-G Dimer; dimeric HLA-G
Experimental: as §1, §2

[6] = molecular target: T1, recombinant soluble human HLA-G β2M MHC …; test: as above
Experimental: as §1, §2

[7] = molecular target: T2, recombinant soluble human HLA-G β2M MHC …; test: SPR Biacore T200, antibody captured via anti-Fc, HLA-G monomer as analyte, 25 C
Experimental: Binding kinetics of anti-HLA-G antibodies to human HLA-G, human HLA-G degrafted and human HLA-A2 were investigated by surface plasmon resonance using a BIACORE T200 instrument (GE Healthcare). All experiments were performed at 25° C. using PBS Buffer (pH 7.4+0.05% Tween20) as running buffer and PBS Buffer (+0.1% BSA) as dilution buffer. Anti-human Fc (JIR009-005-098, Jackson) or anti-rat Fc (JIR112-005-071, Jackson) or anti-Mouse Fc (JIR115-005-071, Jackson) antibodies were immobilized on a Series S CM5 Sensor Chip (GE Healthcare) at pH 5.0 by using an amine coupling kit supplied by GE Healthcare. Anti-HLA-G antibodies were captured on the surface leading to a capturing response of 50-200 RU. HLA-G molecules were injected for 180 s at 30 μl/min with concentrations from 2.5 up to 800 nM (2×1:2 and 4×1:3 dilution series) onto the surface (association phase). The dissociation phase was monitored for 300-600 sec by washing with running buffer. The surface was regenerated by injecting H3PO4 (0,85%) for 60+30 seconds for anti-human Fc capturing antibodies, glycine pH1,5 for 60 seconds and glycine pH2,0 for 60 seconds for anti-rat Fc capturing antibodies, H3PO4 (0,85%) for 80+60 seconds for anti-mouse Fc capturing antibodies. Bulk refractive index differences were corrected by subtracting the response obtained from a mock surface. Blank injections were subtracted (double referencing). The derived curves were fitted to a 1:1 Langmuir binding model using the BIAevaluation software.
The above table summarizes the antibody affinities and t½ values against wt and degrafted HLA-G as assessed by Surface plasmon resonance (Biacore) analysis. Binding kinetics of anti-HLA-G antibodies to human HLA-G and human HLA-G degrafted were investigated by surface plasmon resonance using a BIACORE T200 instrument (GE Healthcare). All experiments were performed at 25° C. using PBS Buffer (pH 7.4+0.05% Tween20) as running buffer and PBS Buffer (+0.1% BSA) as dilution buffer. Anti-human Fc (JIR009-005-098, Jackson) or anti-rat Fc (JIR112-005-071, Jackson) or anti-Mouse Fc (JIR115-005-071, Jackson) antibodies were immobilized on a Series S CM5 Sensor Chip (GE Healthcare) at pH 5.0 by using an amine coupling kit supplied by GE Healthcare.

Row | Binder | % TNF release (restoration) by monocytes (different donor) co-cultured with JEG-3 wt cells, LPS; antibody 0.16 µg/ml [1] | % TNF release (restoration) by monocytes (different donor) co-cultured with JEG-3 wt cells, LPS; antibody 0.63 µg/ml [1] | % TNF release (restoration) by monocytes (different donor) co-cultured with JEG-3 wt cells, LPS; antibody 2.5 µg/ml [1] | % TNF release (restoration) by monocytes (different donor) co-cultured with JEG-3 wt cells, LPS; antibody 10 µg/ml [1] | EC50 [2] | % inh. ILT4 (3 µg/ml antibody) [3] | % inhibition of ILT2 binding [4] | % inhibition of ILT2 binding [5] | % inhibition of ILT2 binding [6] | Kd [7] | koff [7] | kon [7] | t 1/2 [7]
1 | HLA-G-0039 (antibody, V domains shown, Human antibody from humanized OmniRat (OMT) rats) VH: EVQLLESGGGLVQPGGSLRLSCAASGFTFSSYAMNWVRQAPGKGLEWVSVISGSGVSTYYADSVKGRFTISRDNSRNTLSLQMNSLRAEDTAVYYCAKDGSYNYGYGDYFDYWGQGTLVTVSS VL: not shown | – | – | – | – | 5.29 nM | 23.9% | -450% | 25% | 70% | 0.95 nM | 0.00044 s⁻¹ | 460000 M⁻¹ s⁻¹ | 27 min
2 | HLA-G-0090 (antibody, V domains shown, Human antibody from humanized OmniRat (OMT) rats) VH: QVQLQQSGPGLLKPSQTLSLTCAISGDSVSSNRAAWNWIRQSPSRGLEWLGRTYYRSKWYNDYAVSVQGRITLIPDTSKNQFSLRLNSVTPEDTAVYYCASVRAVAPFDYWGQGVLVTVSS VL: not shown | 198% | 219% | 233% | 221% | – | – | – | – | – | 3.6 nM | 0.00085 s⁻¹ | 230000 M⁻¹ s⁻¹ | 14 min

The next lines start with the values.

Row | % TNF release (restoration) by monocytes (different donor) co-cultured with JEG-3 wt cells, LPS; antibody 0.16 µg/ml [1] | % TNF release (restoration) by monocytes (different donor) co-cultured with JEG-3 wt cells, LPS; antibody 0.63 µg/ml [1] | % TNF release (restoration) by monocytes (different donor) co-cultured with JEG-3 wt cells, LPS; antibody 2.5 µg/ml [1] | % TNF release (restoration) by monocytes (different donor) co-cultured with JEG-3 wt cells, LPS; antibody 10 µg/ml [1] | EC50 [2] | % inh. ILT4 (3 µg/ml antibody) [3] | % inhibition of ILT2 binding [4] | % inhibition of ILT2 binding [5] | % inhibition of ILT2 binding [6] | Kd [7] | koff [7] | kon [7] | t 1/2 [7] | Binder
3 | 14% | 44% | 67% | 74% | 1.86 nM | 39.8% | 101% | 99% | 100% | 75 nM | 0.0037 s⁻¹ | 49000 M⁻¹ s⁻¹ | 3 min | HLA-G-0031 (antibody, V domains shown, Rat monoclonal antibody obtained from CD rats) VH: QVKLMQSGAALVKPGTSVKMSCNASGYTFTDYWVSWVKQSHGKRLEWVGEISPNSGASNFDENFKDKATLTVDKSTSTAYMELSRLTSEDSAIYYCTRSSHGSFRWFAYWGQGTLVTVSS VL: AIVLNQSPSSIVASQGEKVTITCRASSSVSSNHLHWYQQKPGAFPKFVIYSTSQRASGIPSRFSGSGSGTSYSFTISRVEAEDVATYYCQQGSSNPYTFGAGTKLELK
4 | 44% | 66% | 59% | 40% | 4.87 nM | 18.4% | -437% | 23% | 67% | 1.3 nM | 0.00049 s⁻¹ | 380000 M⁻¹ s⁻¹ | 23 min | HLA-G-0041 (antibody, V domains shown, Human antibody from humanized OmniRat (OMT) rats) VH: EVQLLESGGGLVQPGGSLRLSCAASGFTFSTYGMSWVRQAPGKGLEWVSVISGGGVSTYYADSVKGRFTISRDNSKNTLYLQMNRLRAEDTAVYYCAKDGSYNYGYGDYFDYWGQGTLVTVSS VL: not shown
